Source: publication PMC6902028, “Elucidating the Immune Evasion Mechanisms of Borrelia mayonii, the Causative Agent of Lyme Disease” (Frontiers in Immunology, 2019)

Target: T1, complement regulator factor H (FH) (human, UniProt P08603 19-1231)
T1 construct: source: bought: Complement Technology (purified); native, in non-immune human serum (NHS, NHS-EDTA)
Assay: ELISA; CspA of B. mayonii MN14-1420 (5 μg/ml) immobilised, increasing concentrations of FH; non-linear regression, one-site specific binding model
Details: both partners purified

T1 sequence (P08603 19-1231): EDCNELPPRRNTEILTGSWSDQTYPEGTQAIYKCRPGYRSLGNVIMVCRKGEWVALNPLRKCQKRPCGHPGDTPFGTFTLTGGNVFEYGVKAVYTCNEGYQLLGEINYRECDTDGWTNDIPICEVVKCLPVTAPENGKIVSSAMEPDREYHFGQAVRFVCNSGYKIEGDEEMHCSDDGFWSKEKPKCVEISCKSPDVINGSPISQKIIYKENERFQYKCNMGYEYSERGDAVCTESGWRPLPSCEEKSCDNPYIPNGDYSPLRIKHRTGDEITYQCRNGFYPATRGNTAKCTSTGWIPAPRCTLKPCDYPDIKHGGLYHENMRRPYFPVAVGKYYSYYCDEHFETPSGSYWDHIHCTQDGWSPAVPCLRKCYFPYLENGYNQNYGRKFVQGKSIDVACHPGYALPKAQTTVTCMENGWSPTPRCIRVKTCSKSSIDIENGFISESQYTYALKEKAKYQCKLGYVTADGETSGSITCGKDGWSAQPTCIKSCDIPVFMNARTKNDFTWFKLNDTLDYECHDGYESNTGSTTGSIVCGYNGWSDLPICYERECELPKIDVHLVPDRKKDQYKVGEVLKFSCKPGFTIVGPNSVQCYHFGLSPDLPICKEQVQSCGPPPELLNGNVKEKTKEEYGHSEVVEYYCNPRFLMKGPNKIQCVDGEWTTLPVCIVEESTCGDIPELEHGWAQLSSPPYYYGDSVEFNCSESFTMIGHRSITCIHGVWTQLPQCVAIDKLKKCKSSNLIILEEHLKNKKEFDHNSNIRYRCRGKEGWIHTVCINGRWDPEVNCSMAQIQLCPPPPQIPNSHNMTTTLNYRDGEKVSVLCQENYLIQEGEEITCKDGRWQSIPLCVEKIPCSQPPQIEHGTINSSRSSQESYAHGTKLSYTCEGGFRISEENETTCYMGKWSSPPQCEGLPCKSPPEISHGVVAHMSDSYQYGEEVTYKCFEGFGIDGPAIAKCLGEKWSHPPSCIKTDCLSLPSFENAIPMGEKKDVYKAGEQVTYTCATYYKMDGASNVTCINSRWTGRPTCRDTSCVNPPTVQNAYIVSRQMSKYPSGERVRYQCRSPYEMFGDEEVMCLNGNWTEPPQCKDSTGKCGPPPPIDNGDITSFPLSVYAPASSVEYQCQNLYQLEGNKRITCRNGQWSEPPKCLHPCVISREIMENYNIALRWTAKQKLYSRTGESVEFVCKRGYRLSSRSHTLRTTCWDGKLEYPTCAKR

B1: His6-tagged CspA of B. mayonii MN14-1420 (CspA-like protein Bmayo_04535) (natural protein)
chain: TANPIDPKANGNIKPKNNINTKKNTNLEKNTQNFENESENPRSYNQKLLEATIKELKVIGKNLEDQRKEENIQIAKIVDEKFDFLGTFKVGPYDIIEENQQMKMKRIIYSSLNYKKEKIETLKEILETLKNNPEHQYIAGRLANLSWSIQFKIDDNFETIQNGVDNLDQEKSESLLMRAKSNLQLKERFKKTLNETLEAYSQNAQNIKNDIGILAEHVNKYYKYSDSLKPIFY
notes: also called CspA orthologous protein of B. mayonii; CspA ortholog; not shown: His6, N-terminal, kept
- Kd: 5.6 ± 0.58 nM
